Experimental data from PMC8278288 (Frontiers in Immunology, 2021).
Each block holds one binder with its values, some of them ahead of it.

Key:
[1] = molecular target: T1, IL-7 receptor ectodomain (rhIL-7Rα) (human, UniProt P16871 21-239); assay: SPR
T1 chain: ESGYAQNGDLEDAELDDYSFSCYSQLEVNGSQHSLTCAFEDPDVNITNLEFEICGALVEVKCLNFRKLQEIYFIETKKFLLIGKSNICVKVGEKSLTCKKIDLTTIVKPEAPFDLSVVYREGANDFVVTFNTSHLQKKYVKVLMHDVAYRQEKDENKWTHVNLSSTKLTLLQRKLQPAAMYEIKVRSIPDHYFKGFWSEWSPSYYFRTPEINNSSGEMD

[2] = molecular target: T2, N-terminal fragment of MMP-9-cleaved human IL-7 produced in HEK-293 cells (IL-7*) (human, UniProt P13232 26-128, N-linked oligosaccharides (sites shown in Figure 1D)); assay: non-reducing SDS-PAGE; IL-7 digested with MMP-9, electrophoresis with SDS and without reducing agent, compared with reducing conditions; details: both partners purified
T2 construct: Interleukin-7, human, N-terminal fragment up to Ala128 (MMP-9 cleavage between Ala128 and Leu129); source: bought: Biolegend (produced in human HEK-293 cells), then digested with MMP-9
T2 sequence (looked up): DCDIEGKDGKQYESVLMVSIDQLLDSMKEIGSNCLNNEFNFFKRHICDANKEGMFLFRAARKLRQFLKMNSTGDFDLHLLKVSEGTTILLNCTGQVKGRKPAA

[3] = molecular target: T3, N-terminal fragment of MMP-9-cleaved human IL-7 produced in E. coli (IL-7*) (human, UniProt P13232 26-128); assay: as above; details: both partners purified
T3 construct: Interleukin-7, human, N-terminal fragment up to Ala128 (MMP-9 cleavage between Ala128 and Leu129); source: bought: Peprotech (produced in E. coli), then digested with MMP-9
T3 sequence (looked up): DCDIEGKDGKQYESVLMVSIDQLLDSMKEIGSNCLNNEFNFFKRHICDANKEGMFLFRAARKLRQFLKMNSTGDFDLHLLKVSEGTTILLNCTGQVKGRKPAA

[4] = molecular target: T4, N-terminal fragment of MMP-9-cleaved His-tagged human IL-7 produced in insect cells (IL-7*) (human, UniProt P13232 26-128, N-linked glycosylation (partially glycosylated; sites shown in Figure 1D)); assay: pull-down; His-tagged IL-7 (C-terminal tag) digested with MMP-9, histidine tag pull-down with Ni-NTA magnetic microbeads under native conditions; bound and non-bound proteins resolved by reducing SDS-PAGE; details: both partners purified
T4 construct: Interleukin-7, human, N-terminal fragment up to Ala128 (MMP-9 cleavage between Ala128 and Leu129); also called N-terminal fragment of IL-7; source: bought: Novus (produced in insect cells), then digested with MMP-9
T4 sequence (looked up): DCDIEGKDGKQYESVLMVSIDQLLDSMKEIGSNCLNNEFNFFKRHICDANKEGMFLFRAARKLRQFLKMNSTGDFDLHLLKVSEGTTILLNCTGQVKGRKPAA

B1: MMP-9-cleaved recombinant human IL-7 produced in E. coli (cIL-7) (complex)
chain 1: DCDIEGKDGKQYESVLMVSIDQLLDSMKEIGSNCLNNEFNFFKRHICDANKEGMFLFRAARKLRQFLKMNSTGDFDLHLLKVSEGTTILLNCTGQVKGRKPAA
chain 2: LGEAQPTKSLEENKSLKEQKKLNDLCFLKRLLQEIKTCWNKILMGTKEH
- Kd [1]: 64 nM

B2: C-terminal fragment of MMP-9-cleaved human IL-7 produced in HEK-293 cells (IL-7**) (domain or fragment, UniProt P13232 129-177, looked up)
chain: LGEAQPTKSLEENKSLKEQKKLNDLCFLKRLLQEIKTCWNKILMGTKEH
notes: Interleukin-7, human, C-terminal fragment from Leu129 (neo-N-terminus LGEAQ); source: bought: Biolegend (produced in human HEK-293 cells), then digested with MMP-9
- binding result [2]: binds

B3: C-terminal fragment of MMP-9-cleaved human IL-7 produced in E. coli (IL-7**) (domain or fragment, UniProt P13232 129-177, looked up)
chain: LGEAQPTKSLEENKSLKEQKKLNDLCFLKRLLQEIKTCWNKILMGTKEH
notes: Interleukin-7, human, C-terminal fragment from Leu129 (neo-N-terminus LGEAQ); source: bought: Peprotech (produced in E. coli), then digested with MMP-9
- binding result [3]: binds

Continued, values first:

- Kd [1]: 290 nM
B4: MMP-9-cleaved recombinant human IL-7 produced in human HEK-293 cells (cIL-7) (complex)
chain 1: DCDIEGKDGKQYESVLMVSIDQLLDSMKEIGSNCLNNEFNFFKRHICDANKEGMFLFRAARKLRQFLKMNSTGDFDLHLLKVSEGTTILLNCTGQVKGRKPAA
chain 2: LGEAQPTKSLEENKSLKEQKKLNDLCFLKRLLQEIKTCWNKILMGTKEH
modifications: N-linked oligosaccharides (sites shown in Figure 1D)

- binding result [4]: binds
B5: C-terminal fragment of MMP-9-cleaved His-tagged human IL-7 produced in insect cells (IL-7**) (domain or fragment, UniProt P13232 129-177, looked up)
chain: LGEAQPTKSLEENKSLKEQKKLNDLCFLKRLLQEIKTCWNKILMGTKEH
notes: Interleukin-7, human, C-terminal fragment from Leu129 (neo-N-terminus LGEAQ); Held on nickel beads by the C-terminal His tag; source: bought: Novus (produced in insect cells), then digested with MMP-9; not shown: His tag, C-terminal, kept
